# According to paper PMC3828196 (PLoS ONE, 2013):
# “Also recorded” adds a separate entry of the source. Like-named read-outs stand apart in the source and are kept apart here.
# B1: EcDsbA: Escherichia coli DsbA (CAA56736) (protein)
# chain: AQYEDGKQYTTLEKPVAGAPQVLEFFSFFCPHCYQFEEVLHISDNVKKKLPEGVKMTKYHVNFMGGDLGKDLTQAWAVAMALGVEDKVTVPLFEGVQKTQTIRSASDIRDVFINAGIKGEEYDAAWNSFVVKSLVAQQEKAAADVQLRGVPAMFVNGKYQLNPQGMDTSNMDVFVQQYADTVKYLSEKK
# Legend:
# EcDsbA = biological target: T1, EcDsbA (Escherichia coli, UniProt P0AEG4); test: biochemical; type: binding, E. coli; settings: ITC; range stated for KpDsbA and EcDsbA with […] and […] together; read-out: Kd (range over both peptides and both DsbAs)
# T1 construct: lacking the periplasmic leader signal were purified as described for KpDsbA; His6-TEV leader (inferred: same procedure as KpDsbA) (N, cleaved yes); made in house; host or cells: E. coli BL21(DE3)pLys (inferred from 'as described for KpDsbA')
# Description: (§1) Amidation and acetylation ensure that there are no charges on the peptide termini, as these are not present in the native DsbB loop sequence. Binding affinity was measured using a MicroCal™ Auto-iTC200 from (GE Healthcare, USA) at 25 °C. The sample cell was loaded with 200 μL of 100 μM KpDsbA or EcDsbA in 25 mM HEPES, 50 mM NaCl, pH 7.4, and DMSO 0.8 %. The peptide (3 mM) diluted in the same buffer was titrated with an initial injection of 0.5 μL into DsbA, followed by 19 consecutive injections (2.0 μL) offset by 180 s, while the solution was constantly stirred (1000 rpm). Data were fitted to a single-site binding model using MicroCal™ Origin 7.0 software (Origin 7 SR4 v7.0552).
# KpDsbA = test: ITC binding of DsbB-derived peptides to KpDsbA; set-up: species or system K. pneumoniae
# Description: as §1, with “v7.0552). Experiments were conducted in triplicate and affinity and thermodynamic parameters are reported as means and standard deviations (Table 4).” for “v7.0552).”
# insulin [1] = test: Insulin disulfide reductase activity; type: biochemical; settings: 10 μM enzyme, 0.33 mM DTT, 2 mM EDTA, 100 mM phosphate pH 7.0, 0.131 mM insulin; OD650nm turbidity; three repeats
# Description: Under mild reducing conditions, DsbA proteins can reduce the intermolecular disulfide bonds formed between insulin chains A and B [3]. The rate of disulfide bond reduction can be spectroscopically followed at OD650nm by an increase in turbidity resulting from production of the insoluble insulin chain B [20]. Samples were prepared in 1 cm cuvettes containing 10 μM of protein (KpDsbA, EcDsbA or EcDsbC), 0.33 mM DTT and 2 mM EDTA in 100 mM NaH2PO4 / Na2HPO4 titrated to pH 7.0. Catalysis was initiated by the addition of 0.131 mM insulin (I0516, Sigma-Aldrich, Australia) to the sample mixture. The assay was repeated three times and data were plotted showing standard deviations.
# [2] = In vitro peptide dithiol oxidation (europium fluorescence); type: biochemical; settings: samples lacking EcDsbB, DsbA plus peptide; pH 5.5; time-resolved fluorescence
# Description: A peptide ([…]) with a 1,4,7,10-tetraazacyclododecane-1,4,7,10-tetraacetic acid (DOTA) group amide-coupled to the N-terminus, and a methylcoumarin amide-coupled to the ε-amino group of the C-terminal lysine, was purchased from AnaSpec (Fremont, CA). Lyophilized peptide was re-suspended in 100 mM imidazole, pH 6, at a concentration of 2 mM. Europium trifluoromethanesulfonate (Sigma Aldrich, Australia) solution (100 mM) was added to the peptide at a molar ratio of 2:1 and incubated for 5 min at room temperature, to allow europium chelation. The peptide solution was then immediately aliquoted, flash frozen in liquid nitrogen and stored at -80°C. An increase in fluorescence occurs upon oxidation of the peptide cysteines to form a disulfide. Thus, fluorescence can be used to monitor the capacity of DsbA enzymes to catalyse dithiol oxidation.
# Assays were conducted using a Synergy H1 multimode plate reader (BioTek, USA) with the excitation wavelength set to 340 nm and emission to 615 nm. A 150 μs delay before reading and 100 μs reading time were used for time-resolved fluorescence. The assay was performed in a white 384-well plate (Perkin Elmer OptiPlate-384, Part #: 6007290). The buffer consisted of 50 mM MES, 50 mM NaCl and 2 mM EDTA at pH 5.5. The reaction consisted of a 50 μL solution in each well, containing 160 nM EcDsbA, KpDsbA or SeDsbA, 1.6 μM EcDsbB (crude membrane extracts, containing ubiquinone) and 8 μM peptide substrate added last to initiate the reaction. Samples containing buffer and DsbA or buffer and peptide were used as controls. Data were measured for three replicates and are presented as mean values, with the standard error of the mean indicated by error bars.
# [3] = EcDsbA, cited from earlier work
# Source text: The past 5 years has seen the characterization of DsbA enzymes from many other bacteria including DsbAs with varying degrees of sequence identity to EcDsbA such as Neisseria meningitidis DsbA1 (NmDsbA1, 23% identity), Pseudomonas aerugin ... || EcDsbA and SeDsbA share 86 % sequence identity and both have been characterized previously. […] Both are similarly oxidizing enzymes: the redox potentials of EcDsbA and SeDsbA are -122 and -126 mV, respectively, whereas the range for all DsbAs is -80 to -163 mV (Table 1 ). In b ... || (+ 1 further places)
# insulin [4] = settings: cited from earlier work
# [5] = system: E. coli dsbA- null (JCB817); test: Complementation swarming assay, dsbA- null strain JCB817; settings: pBAD33, arabinose-induced; soft M63 minimal agar, 37 °C, 3-7 h; biological triplicates
# Description: The ability of KpDsbA to rescue non-motile E. coli dsbA ^- null (JCB817) and dsbA ^-/dsbB ^- double-null (JCB818) strains was assessed in a cell-swarming assay as described previously [16]. The mature KpDsbA coding sequence was cloned into pBAD33 under an arabinose inducible promotor with the EcDsbA periplasmic signal sequence. A wild-type EcDsbA cloned into pBAD33 vector was used as a positive control. Non-motile E. coli dsbA ^- deficient (JCB817) or dsbA ^- / dsbB ^- double-mutant (JCB818) [3] cells (2x10^6) transformed with a KpDsbA or EcDsbA pBAD33 inducible vector were spotted onto the center of a soft M63 minimal agar plate containing 40 mg/mL of each amino acid (except L-cysteine). Plates were incubated at 37 °C and motility of cells monitored using a Molecular Imager® Gel Doc™ system from BIO-RAD (CA 94547, USA) after 3-7 h. Complementation experiments were repeated as biological triplicates.
Molecule,Kd (EcDsbA),"Kd (KpDsbA; ITC (Auto-iTC200), cell 100 μM KpDsbA, peptide 3 mM, 25 mM HEPES, 50 mM NaCl, pH 7.4, DMSO 0.8 %, 25 °C in method, 20 °C in table footnote, single-site model, apparent Kd, mean ± SD, three independent experiments, read-out: Kd)","Kd (KpDsbA; ITC, range stated for KpDsbA and EcDsbA with PSPFATCD and PSPFQTCD together, read-out: Kd (range over both peptides and both DsbAs))",insulin disulfide reductase activity (insulin [1]),dithiol oxidation signal without EcDsbB [2],"E°’ (redox potential) ([3]; Table 1, ref [6], [14])","Tm oxidized ([3]; Table 1, ref [6], [14])","Tm reduced ([3]; Table 1, ref [6], [14])","pKa “Cys30” ([3]; Table 1 and comparison, ref [6], [14])","pKa of nucleophilic cysteine ([3]; introduction, ref [9])","Tm oxidized ([3]; with spread, ref [7])","Tm reduced ([3]; with spread, ref [7])",pKa of nucleophilic cysteine ([3]; ref [7]),redox potential ([3]; ref [9]),Tm oxidized ([3]; ref [13]),Tm reduced ([3]; ref [13]),insulin reductase activity (insulin [4]),restoration of motility (swarming) [5]
CC(=O)N1CCC[C@H]1C(=O)N[C@@H](CO)C(=O)N1CCC[C@H]1C(=O)N[C@@H](Cc1ccccc1)C(=O)N[C@@H](CCC(N)=O)C(=O)N[C@H](C(=O)N[C@@H](CS)C(=O)N[C@@H](CC(=O)O)C(N)=O)[C@@H](C)O,11 to 18 µM,16.7 ± 0.6 µM,11 to 18 µM,,,,,,,,,,,,,,,
B1,,,,weak insulin reductase activity,no increase in signal,-122 mV,341 K,350 K,3.3,3.3,341.7 ± 0.2 K,350.9 ± 0.2 K,3.3,-122 mV,341 K,350 K,weak disulfide reductants; also recorded: weak insulin reductase activity,can rescue the swarming
